In publication PMC8558138:
Values joined by “and” are separate entries in the source; they are usually repeats but may differ in a detail not shown here. Identical values can stand only once. Like-named read-outs stand apart in the source and are kept apart here.

Assays:
[1] = target: pHERV-W ENV expressed in transfected HEK293T cells (pCMV-HERV-W ENV) (human); test: automated capillary Western blot (Simple Western, WES); lysates of transfected HEK293T cells in RIPA with 1% fos-cholin 16, soluble and insoluble fractions, denatured at 95 °C; 12-230 kDa and 66-440 kDa matrices; detection with GN_mAb_Env01, GN_mAb_Env04, GN_mAb_Env-K01 or anti-FLAG
[2] = target: pHERV-W ENV expressed in transfected HEK293T cells (pCMV-HERV-W ENV) (human); test: as above; remark: listed apart in the source
[3] = target: pHERV-W ENV soluble antigen from MS brain active lesions (human (endogenous in MS brain lesions)); test: automated capillary Western blot (Simple Western, WES); soluble fraction of frozen brain white matter blocks (MS active lesions), fos-cholin 16 extraction, >= 120 kDa enriched on AMICON, denaturing conditions; detection with GN_mAb_Env01-biotin, or GN_mAb_Env04 after deglycosylation
[4] = target: Purified recombinant full-length HERV-W ENV protein (pHERV-W ENV) produced in E. coli (human); test: automated capillary Western blot (Simple Western, WES); purified rENV incubated up to 24 h at 37 °C in DMEM with 10% FBS (also with 1.5% SDS overnight: only a low proportion of hexamer); samples denatured at 95 °C; detection with GN_mAb_Env01; denaturation-resistant oligomers
[5] = target: Purified recombinant full-length HERV-W ENV protein (pHERV-W ENV) produced in E. coli (human); test: automated capillary Western blot (Simple Western, WES); purified rENV monomers incubated in serum-free DMEM with sulfatides from bovine brain; detection with GN_mAb_Env01, or GN_mAb_Env04 after deglycosylation

Question: Which results are given for “pHERV-W ENV expressed in transfected HEK293T cells (pCMV-HERV-W ENV) (natural protein)”?
Answer: stoichiometry N [1]: 2; stoichiometry N [2]: 3

Question: “pHERV-W ENV soluble antigen from MS brain active lesions (natural protein)” was tested. Which stoichiometry N [3] did it give?
Answer: Its stoichiometry N is 6.

Question: Which results are given for “Purified recombinant full-length HERV-W ENV protein (pHERV-W ENV) produced in E. coli (natural protein)”?
Answer: stoichiometry N [4]: 6 and 2; stoichiometry N [5]: 6
